The results in this text go back to patent US20150322135A1 (Pfizer, published 2015).

In assay [1] the target is T1, Mouse FcRn protein (mouse, UniProt Q61559 22-297).
T1 construct: Bought protein; called soluble in the 1-to-1 assay and amine-coupled to the chip in the avidity and pH-switch assays; also called soluble mouse FcRn protein; neonatal Fc receptor
The assay can be described thus: SPR 1-to-1 format: variant amine-coupled to CM5 chip, soluble mouse FcRn injected, pH 6.0, steady state. The method, then: (§1) The FcRn binding assays were carried out using a surface plasmon resonance (SPR) biosensor, Biacore 3000 (Biacore, Uppsala, Sweden). The sensor chip CM5, surfactant P20, N-ethyl-N-(3-dimethylaminopropyl)carbodiimide (EDC), N-hydroxysuccinimide (NHS), and 1 M ethanolamine (pH 8.5) were purchased from GE Healthcare (Piscataway, N.J.). The SPR experiments were conducted at 25° C. in PBS buffer (pH 6.0) with 0.005% P20. A Mouse FcRn protein was purchased from ARVYS Proteins, Inc. (Stamford, Conn.). All the experiments were repeated three times.
1-to-1 binding Assay—Immobilization of engineered N-glycosylated Fc variants or Fab-mono engineered N-glycosylated Fc variants on a CM5 sensor chip was conducted by the amine coupling method. Briefly, 20 μM protein solution was diluted 20 times in 10 mM acetate (pH 4.5) and injected onto a biosensor surface which had been pre-activated with a 20 uL injection of 1:1 mixture of 200 mM EDC and 50 mM NHS, followed by the injection of 1 M ethanolamine-HCl (pH 8.5). For reference surface, one flow cell was activated by the EDC-NHS mixture and deactivated by ethanol amine without protein. The equilibrium binding was measured by injecting 150 uL of soluble mouse FcRn protein at flow rate of 5 uL/min. The sensor surfaces were regenerated by running PBS buffer (pH 7.2) for 1 min. We observed that all the binding curves of each concentration reached the plateau at the end of injection (30 min).

The target in assay [2] is T1, Mouse FcRn protein. The assay can be described thus: SPR pH-switch assay: mouse FcRn immobilised, variant bound at pH 6.0, percent bound in the dissociation phase at neutral pH against pH 6.0. The method, then:
as §1
pH-Switch Assay: In order to evaluate the efficiency of dissociation of Fab-monoFc variants from FcRn at neutral pH, the “pH-switch assay” modified from the method that was previously reported was employed. See, e.g., Wang et al., Drug Metab. Dispos. 39, 1469-1477 (2011). In this assay, mouse FcRn protein was immobilized on a CM5 sensor chip by the amine coupling method. The binding was measured by injecting 100 uM of Fab-monoFc variants in running buffer (PBS, pH 6.0) followed by injection of either running buffer (PBS, pH 6.0) or neutral buffer (PBS, pH 7.2) alone over the FcRn surface at flow rate of 50 μL/min.

Assay [3] concerns the target T1, Mouse FcRn protein. As to the kind of experiment: SPR avidity format: mouse FcRn immobilised on CM5 chip, variant injected, pH 6.0, steady state. The method, then:
as §1
(§2) Avidity Assay: —In order to assess the avidity of analyte (molecule in mobile phase), the SPR-based “avidity assay format” was performed as previously described. See, e.g., Zalevsky et al., Nature Biotech. 28, 157-159; Yeung et al., J. Immunol. 182, 7663-7671 (2009); and Suzuki et al., J. Immunol. 184, 1968-1976 (2010). That is, mouse FcRn protein was immobilized on a CM5 sensor chip by the amine coupling method as described above. The equilibrium binding was measured by injecting 30 μL, of Fab-monoFc variants over the FcRn surface at flow rate of 2 μL/min. The sensor surfaces were regenerated by running 100 mM tris-HCl, pH 8.0 for 1 min.

Assay [4] concerns the target T1, Mouse FcRn protein. As to the kind of experiment: SPR avidity format: FcRn localized on the chip surface. The method, then: as §1, §2

T1 sequence (Q61559 22-297): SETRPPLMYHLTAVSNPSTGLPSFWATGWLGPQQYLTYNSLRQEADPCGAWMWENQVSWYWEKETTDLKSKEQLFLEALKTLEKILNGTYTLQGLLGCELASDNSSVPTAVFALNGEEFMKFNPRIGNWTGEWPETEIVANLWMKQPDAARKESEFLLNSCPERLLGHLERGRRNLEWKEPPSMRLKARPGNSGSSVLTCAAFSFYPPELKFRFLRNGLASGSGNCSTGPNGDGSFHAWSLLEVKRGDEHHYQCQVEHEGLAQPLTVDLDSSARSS

B1: Fab-CH23-HEK (Fab-CH23 [N364/N407] produced from HEK293 transient expression system) (Fc fusion)
heavy: EVQLVESGGGLVQPGGSLRLSCAASGFTFSNYDMYWVRQTTGKGLEWVSAIGTAGDTYYPGSVKGRFTISRENAKNSLYLQMNSLRAGDTAVYYCAREKSSTSAFDYWGQGTLVTVSSASTKGPSVFPLAPSSKSTSGGTAALGCLVKDYFPEPVTVSWNSGALTSGVHTFPAVLQSSGLYSLSSVVTVPSSSLGTQTYICNVNHKPSNTKVDKKVEPKSCDKTHTGGGGSGGGGSGGPSVFLFPPKPKDTLMISRTPEVTCVVVDVSHEDPEVKFNWYVDGVEVHNAKTKPREEQYNSTYRVVSVLTVLHQDWLNGKEYKCKVSNKALPAPIEKTISKAKGQPREPQVYTLPPSREEMTKNQVNLTCLVKGFYPSDIAVEWESNGQPENNYKTTPPVLDSDGSFFLNSTLTVDKSRWQQGNVFSCSVMHEALHNHYTQKSLSLSPGK
light: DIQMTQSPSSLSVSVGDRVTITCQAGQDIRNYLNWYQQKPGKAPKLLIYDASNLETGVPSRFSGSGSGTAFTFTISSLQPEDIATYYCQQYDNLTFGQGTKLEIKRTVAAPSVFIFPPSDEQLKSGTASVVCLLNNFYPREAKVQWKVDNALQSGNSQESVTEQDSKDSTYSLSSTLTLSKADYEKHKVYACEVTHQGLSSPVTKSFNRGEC
modifications: N-linked glycans at Asn297 (natural) and engineered Asn364 and Asn407 (EU numbering), HEK293 glycoform
notes: Same construct as Fab-CH23, made in HEK293 cells instead of CHO cells
With B1, the Kd in assay [1] turned out to be 230 nM; in assay [3], 180 nM. The “% bound” value in assay [2] worked out at 1.1%.

B2: Fab-CH23[M428L/N434S] (FcRn enhancement variant) (Fc fusion)
heavy: EVQLVESGGGLVQPGGSLRLSCAASGFTFSNYDMYWVRQTTGKGLEWVSAIGTAGDTYYPGSVKGRFTISRENAKNSLYLQMNSLRAGDTAVYYCAREKSSTSAFDYWGQGTLVTVSSASTKGPSVFPLAPSSKSTSGGTAALGCLVKDYFPEPVTVSWNSGALTSGVHTFPAVLQSSGLYSLSSVVTVPSSSLGTQTYICNVNHKPSNTKVDKKVEPKSCDKTHTGGGGSGGGGSGGPSVFLFPPKPKDTLMISRTPEVTCVVVDVSHEDPEVKFNWYVDGVEVHNAKTKPREEQYNSTYRVVSVLTVLHQDWLNGKEYKCKVSNKALPAPIEKTISKAKGQPREPQVYTLPPSREEMTKNQVNLTCLVKGFYPSDIAVEWESNGQPENNYKTTPPVLDSDGSFFLNSTLTVDKSRWQQGNVFSCSVLHEALHSHYTQKSLSLSPGK
light: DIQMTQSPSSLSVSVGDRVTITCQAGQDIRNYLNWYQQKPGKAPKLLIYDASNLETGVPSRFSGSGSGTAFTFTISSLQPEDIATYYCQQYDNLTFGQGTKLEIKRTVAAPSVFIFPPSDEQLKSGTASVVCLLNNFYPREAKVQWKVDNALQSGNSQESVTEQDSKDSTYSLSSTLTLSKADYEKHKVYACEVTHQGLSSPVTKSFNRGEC
modifications: N-linked glycans at Asn297 (natural) and engineered Asn364 and Asn407 (EU numbering)
notes: Made in CHO cells; also called Fab-CH23 [M428L/N434L]
As to B2, the figures for the Kd in assay [1] and in assay [3] were 68 nM and 35 nM, respectively. The “% bound” value in assay [2] is 20%.

B3: Fab-CH23 (Fab-CH23-N364/N407), Fab of an anti-KLH antibody fused to CH23 (Fc fusion)
heavy: EVQLVESGGGLVQPGGSLRLSCAASGFTFSNYDMYWVRQTTGKGLEWVSAIGTAGDTYYPGSVKGRFTISRENAKNSLYLQMNSLRAGDTAVYYCAREKSSTSAFDYWGQGTLVTVSSASTKGPSVFPLAPSSKSTSGGTAALGCLVKDYFPEPVTVSWNSGALTSGVHTFPAVLQSSGLYSLSSVVTVPSSSLGTQTYICNVNHKPSNTKVDKKVEPKSCDKTHTGGGGSGGGGSGGPSVFLFPPKPKDTLMISRTPEVTCVVVDVSHEDPEVKFNWYVDGVEVHNAKTKPREEQYNSTYRVVSVLTVLHQDWLNGKEYKCKVSNKALPAPIEKTISKAKGQPREPQVYTLPPSREEMTKNQVNLTCLVKGFYPSDIAVEWESNGQPENNYKTTPPVLDSDGSFFLNSTLTVDKSRWQQGNVFSCSVMHEALHNHYTQKSLSLSPGK
light: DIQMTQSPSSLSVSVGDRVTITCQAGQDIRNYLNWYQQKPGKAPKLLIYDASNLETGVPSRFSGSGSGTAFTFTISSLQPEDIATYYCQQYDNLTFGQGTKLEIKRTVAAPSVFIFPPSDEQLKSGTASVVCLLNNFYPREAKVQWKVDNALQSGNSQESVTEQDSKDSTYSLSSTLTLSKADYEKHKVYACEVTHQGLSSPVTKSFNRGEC
modifications: N-linked glycans at Asn297 (natural) and engineered Asn364 and Asn407 (EU numbering)
notes: also called Fab-monoFc
Take B3: the Kd in assay [1] is 250 nM; in assay [3] it was 180 nM. For the same molecule, the “% bound” value in assay [2] turned out to be 5.6%.

B4: Fab-CH23-CH23 (tandem CH23 construct comprising two engineered Fc polypeptides) (Fc fusion)
heavy: EVQLVESGGGLVQPGGSLRLSCAASGFTFSNYDMYWVRQTTGKGLEWVSAIGTAGDTYYPGSVKGRFTISRENAKNSLYLQMNSLRAGDTAVYYCAREKSSTSAFDYWGQGTLVTVSSASTKGPSVFPLAPSSKSTSGGTAALGCLVKDYFPEPVTVSWNSGALTSGVHTFPAVLQSSGLYSLSSVVTVPSSSLGTQTYICNVNHKPSNTKVDKKVEPKSCDKTHTGGGGSGGGGSGGPSVFLFPPKPKDTLMISRTPEVTCVVVDVSHEDPEVKFNWYVDGVEVHNAKTKPREEQYNSTYRVVSVLTVLHQDWLNGKEYKCKVSNKALPAPIEKTISKAKGQPREPQVYTLPPSREEMTKNQVNLTCLVKGFYPSDIAVEWESNGQPENNYKTTPPVLDSDGSFFLNSTLTVDKSRWQQGNVFSCSVMHEALHNHYTQKSLSLSPGGGGSGGGGSGGGGSGGGGSGGPSVFLFPPKPKDTLMISRTPEVTCVVVDVSHEDPEVKFNWYVDGVEVHNAKTKPREEQYNSTYRVVSVLTVLHQDWLNGKEYKCKVSNKALPAPIEKTISKAKGQPREPQVYTLPPSREEMTKNQVNLTCLVKGFYPSDIAVEWESNGQPENNYKTTPPVLDSDGSFFLNSTLTVDKSRWQQGNVFSCSVMHEALHNHYTQKSLSLSPGK
light: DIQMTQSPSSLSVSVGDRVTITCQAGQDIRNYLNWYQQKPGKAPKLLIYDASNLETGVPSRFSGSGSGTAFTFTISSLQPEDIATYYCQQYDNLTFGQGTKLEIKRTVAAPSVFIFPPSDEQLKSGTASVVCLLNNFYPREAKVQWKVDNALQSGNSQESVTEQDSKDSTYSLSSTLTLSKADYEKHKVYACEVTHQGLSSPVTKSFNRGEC
modifications: N-linked glycans at Asn297 (natural) and engineered Asn364 and Asn407 (EU numbering) in each of the two CH23 units
notes: Made in CHO cells; also called Fab-CH23-4XGS-CH23; tandem CH23-CH23
Turning to B4, the Kd was 250 nM in assay [1] and 4.5 nM in assay [3]. Besides, the “% bound” value in assay [2] was 14%. Moreover, in assay [4], the “fold higher affinity than Fab-CH23 (avidity assay)” value is approximately 40 fold.
